Measured values: publication PMC10792529 (Proteins, 2023)

Target: wild-type Ralstonia solanacearum Isocyanide Hydratase (Ralstonia solanacearum)
Assay: crystal structure

wild-type Ralstonia solanacearum Isocyanide Hydratase (enzyme)
stoichiometry N: 2
